What was measured:
[1] = biological target: LTag131-627 V350E/P417D (Simian virus 40); assay: SEC + other: SDS-PAGE gel quantification
[2] = biological target: the molecule itself; assay: SEC
[3] = biological target: the molecule itself; assay: crystal structure
[4] = biological target: SV40 large T antigen LTag131-627 (Simian virus 40, UniProt P03070 131-627); assay: X-ray crystallography

Q: With “LTag131-627 L286Dt/R567E (domain or fragment)” as the molecule, how does the stoichiometry N [1] read?
A: 1 mut1:mut2

B1: SV40 large tumor antigen LTag131-627 (wild type) (domain or fragment)
chain: KVEDPKDFPSELLSFLSHAVFSNRTLACFAIYTTKEKAALLYKKIMEKYSVTFISRHNSYNHNILFFLTPHRHRVSAINNYAQKLCTFSFLICKGVNKEYLMYSALTRDPFSVIEESLPGGLKEHDFNPEEAEETKQVSWKLVTEYAMETKCDDVLLLLGMYLEFQYSFEMCLKCIKKEQPSHYKYHEKHYANAAIFADSKNQKTICQQAVDTVLAKKRVDSLQLTREQMLTNRFNDLLDRMDIMFGSTGSADIEEWMAGVAWLHCLLPKMDSVVYDFLKCMVYNIPKKRYWLFKGPIDSGKTTLAAALLELCGGKALNVNLPLDRLNFELGVAIDQFLVVFEDVKGTGGESRDLPSGQGINNLDNLRDYLDGSVKVNLEKKHLNKRTQIFPPGIVTMNEYSVPKTLQARFVKQIDFRPKDYLKHCLERSEFLLEKRIIQSGIALLLMLIWYRPVAEFAQSIQSRIVEWKERLDKEFSLSVYQKMKFNVAMGIGVLD
Q: With B1 as the molecule, how does the “stoichiometry N” value [2] read?
A: 6

Q: What about the “stoichiometry N” value [3] of the same molecule?
A: 2

B2: EP-half ori 32 bp (dsDNA)
DNA 1: ACTACTTCTGGAATAGCTCAGAGGCCGAGGCG
DNA 2: CGCCTCGGCCTCTGAGCTATTCCAGAAGTAGT
Q: Does B2 bind [4]?
A: binds

— publication PMC3748285 (Cell reports, 2013)
